# Laboratory results taken from IntAct's records for PubMed 15066285.
# B1: Protein pop-1 (Caenorhabditis elegans), Q10666 (parent)
# chain: MMADEELGDEVKVFRRDEDADDDPMISGETSEQQLADDKKEAVMEAELDGAGRNPSIDVLKSAFPKVEPMSPSFPGLMSHFSPGYSAAALPMFMPLFMNPYAAALRSPSLMFPMGAMSPTFPMFPPSPVYGAAIAAAAAKQHFENMAPLNMRAGHPMNQMGMPPYMHPSSMAPQNVDRRAQGGGKAKKDDHVKKPLNAFMWFMKENRKALLEEIGNNEKQSAELNKELGKRWHDLSKEEQAKYFEMAKKDKETHKERYPEWSARENYAVNKKKTKKRRDKSIPSENNDQKKCRARFGVNNTEMWCKFCKRKKKCEYATDRSGGSDITDSQDGRGTSGAYSSSSESPSPKANAGIALTTQQQQAAMMHTMLMQMRLGSTTGASTHVPSPLASSSAGRSPLDANASDSESDVEEEEDEQIDPTVMQQTHDMLMQESMCTI
# partner: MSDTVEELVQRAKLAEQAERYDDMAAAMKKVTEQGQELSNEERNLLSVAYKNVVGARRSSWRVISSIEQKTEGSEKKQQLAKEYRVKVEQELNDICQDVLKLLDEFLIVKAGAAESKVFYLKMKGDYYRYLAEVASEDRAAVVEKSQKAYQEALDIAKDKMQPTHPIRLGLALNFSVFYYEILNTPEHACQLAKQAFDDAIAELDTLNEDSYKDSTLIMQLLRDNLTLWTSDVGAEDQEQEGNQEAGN
# Variants of: B1
# Details: with 14331_caeel par-5, P41932
row,effect of a mutation on the interaction,Variant
1,disrupting interaction,S107A;S109A;S118A;T120A;S127A
